System: Escherichia coli TOP10
Assay: shrunken log2 fold change of peptide-encoding DNA abundance (4.5 h post-induction vs induction); higher = less antimicrobial activity (less host growth inhibition)
Conditions: time post-induction: 4.5 h; library: site-saturation at positions 5, 18, 19, 20
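Note: peptides expressed intracellularly from a pBAD plasmid library in pooled LB shake-flask culture, induced with 0.3% L-arabinose, DNA abundance read by NGS, three biological replicates, DESeq2 with apeglm shrinkage.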

Sequence	shrunken log2 fold change
RRIRKRPPRLPRPRPRPITDPRP	-0.128
RRIRKRPPRLPRPRPRPVWEPRP	0.391
RRIRYRPPRLPRPRPRPITPPRP	-0.174
RRIRMRPPRLPRPRPRPEKTPRP	-0.0246
RRIRGRPPRLPRPRPRPWNTPRP	0.111
RRIRNRPPRLPRPRPRPAPDPRP	0.147
RRIRMRPPRLPRPRPRPLHWPRP	0.116
RRIRNRPPRLPRPRPRPGAMPRP	0.101
RRIRNRPPRLPRPRPRPVLRPRP	0.00524
RRIRDRPPRLPRPRPRPLNDPRP	-0.172
RRIRIRPPRLPRPRPRPKAKPRP	0.329
RRIRKRPPRLPRPRPRPVPLPRP	0.185
RRIRHRPPRLPRPRPRPNKCPRP	-0.431
RRIRRRPPRLPRPRPRPICRPRP	0.378
RRIRWRPPRLPRPRPRPDHYPRP	-0.023
RRIRARPPRLPRPRPRPFLNPRP	-0.248
RRIRGRPPRLPRPRPRPERGPRP	1.72
RRIRLRPPRLPRPRPRPYPIPRP	0.107
RRIRERPPRLPRPRPRPYFCPRP	-0.765
RRIRMRPPRLPRPRPRPYDRPRP	0.043
RRIRHRPPRLPRPRPRPTIPPRP	-0.028
RRIRERPPRLPRPRPRPRILPRP	-0.202
RRIRPRPPRLPRPRPRPCAEPRP	0.27
RRIRARPPRLPRPRPRPIPMPRP	0.0374
RRIRIRPPRLPRPRPRPEKQPRP	0.0192

Sequence	shrunken log2 fold change
RRIRFRPPRLPRPRPRPEKTPRP	-0.00398
RRIRARPPRLPRPRPRPPAHPRP	0.912
RRIRGRPPRLPRPRPRPVDGPRP	0.587
RRIRQRPPRLPRPRPRPMRKPRP	0.0266
RRIRQRPPRLPRPRPRPGIVPRP	0.0144
RRIRIRPPRLPRPRPRPNKCPRP	-0.438
RRIRWRPPRLPRPRPRPGGTPRP	0.209
RRIRLRPPRLPRPRPRPPQEPRP	0.0145
RRIRDRPPRLPRPRPRPKRNPRP	0.136
RRIRIRPPRLPRPRPRPCRQPRP	0.112
RRIRRRPPRLPRPRPRPQGHPRP	0.071
RRIRWRPPRLPRPRPRPYHCPRP	-0.276
RRIRSRPPRLPRPRPRPNRYPRP	-0.296
RRIRFRPPRLPRPRPRPYCRPRP	-0.256
RRIRRRPPRLPRPRPRPDNKPRP	-0.233
RRIRLRPPRLPRPRPRPRPLPRP	0.579
RRIRARPPRLPRPRPRPMCEPRP	0.797
RRIRCRPPRLPRPRPRPWDEPRP	0.247
RRIRDRPPRLPRPRPRPKWEPRP	0.104
RRIRRRPPRLPRPRPRPGPGPRP	0.598
RRIRCRPPRLPRPRPRPYMTPRP	-1.06
RRIRKRPPRLPRPRPRPNTAPRP	0.159
RRIRKRPPRLPRPRPRPWHQPRP	-0.0165
RRIRDRPPRLPRPRPRPHWAPRP	-0.00226
RRIRKRPPRLPRPRPRPYRMPRP	-0.329

Sequence	shrunken log2 fold change
RRIRNRPPRLPRPRPRPGGEPRP	-0.0266
RRIRERPPRLPRPRPRPSVYPRP	-0.493
RRIRWRPPRLPRPRPRPRSTPRP	0.551
RRIRQRPPRLPRPRPRPCMDPRP	0.00489
RRIRDRPPRLPRPRPRPCRHPRP	0.344
RRIRCRPPRLPRPRPRPPWKPRP	0.195
RRIRERPPRLPRPRPRPDANPRP	-0.103
RRIRWRPPRLPRPRPRPQIMPRP	-0.0336
RRIRMRPPRLPRPRPRPYKDPRP	-0.947
RRIRGRPPRLPRPRPRPVVMPRP	0.237
RRIRWRPPRLPRPRPRPMIPPRP	0.0901
RRIRSRPPRLPRPRPRPCLKPRP	0.0091
RRIRFRPPRLPRPRPRPWLGPRP	0.0212
RRIRCRPPRLPRPRPRPLEEPRP	0.408
RRIRIRPPRLPRPRPRPAMCPRP	-0.182
RRIRWRPPRLPRPRPRPYYNPRP	-1.01
RRIRFRPPRLPRPRPRPEKVPRP	-0.0394
RRIRHRPPRLPRPRPRPEETPRP	-0.00605
RRIRCRPPRLPRPRPRPCTLPRP	-0.107
RRIRWRPPRLPRPRPRPYICPRP	-0.329
RRIRLRPPRLPRPRPRPEAQPRP	0.375
RRIRPRPPRLPRPRPRPKHNPRP	-0.303
RRIRSRPPRLPRPRPRPLKRPRP	0.026
RRIRIRPPRLPRPRPRPCWIPRP	-0.222
RRIRQRPPRLPRPRPRPKRIPRP	-0.0308

Sequence	shrunken log2 fold change
RRIRKRPPRLPRPRPRPGHDPRP	0.141
RRIRERPPRLPRPRPRPLHNPRP	-0.388
RRIRHRPPRLPRPRPRPDSEPRP	-0.0112
RRIRGRPPRLPRPRPRPINQPRP	-0.0767
RRIRHRPPRLPRPRPRPGNHPRP	-0.161
RRIRFRPPRLPRPRPRPVMFPRP	-0.218
RRIRRRPPRLPRPRPRPTAGPRP	0.109
RRIRMRPPRLPRPRPRPDAPPRP	3.16
RRIRHRPPRLPRPRPRPPMIPRP	-0.105
RRIRGRPPRLPRPRPRPALYPRP	0.363
RRIRGRPPRLPRPRPRPNDGPRP	0.0995
RRIRDRPPRLPRPRPRPRAEPRP	0.552
RRIRARPPRLPRPRPRPTNDPRP	0.297
RRIRSRPPRLPRPRPRPISEPRP	-0.0465
RRIRMRPPRLPRPRPRPQWYPRP	-0.161
RRIRHRPPRLPRPRPRPDSFPRP	-0.477
RRIRPRPPRLPRPRPRPKENPRP	-0.102
RRIRMRPPRLPRPRPRPAVMPRP	0.782
RRIRERPPRLPRPRPRPFPQPRP	2.37
RRIRDRPPRLPRPRPRPTPHPRP	0.175
RRIRTRPPRLPRPRPRPRSLPRP	0.19
RRIRMRPPRLPRPRPRPPLAPRP	1.48
RRIRYRPPRLPRPRPRPMQGPRP	-0.0463
RRIRERPPRLPRPRPRPKSIPRP	-0.323
RRIRNRPPRLPRPRPRPEFKPRP	-0.0932

Sequence	shrunken log2 fold change
RRIRSRPPRLPRPRPRPQMWPRP	0.0996
RRIRERPPRLPRPRPRPHPPPRP	0.16
RRIRLRPPRLPRPRPRPCGGPRP	0.091
RRIRHRPPRLPRPRPRPARRPRP	0.143
RRIRDRPPRLPRPRPRPACGPRP	0.684
RRIRKRPPRLPRPRPRPWEKPRP	-0.00969
RRIRYRPPRLPRPRPRPSGNPRP	-0.067
RRIRGRPPRLPRPRPRPGVKPRP	0.588
RRIRDRPPRLPRPRPRPNRFPRP	-0.00648
RRIRKRPPRLPRPRPRPVPPPRP	1.85
RRIRHRPPRLPRPRPRPNGLPRP	-0.57
RRIRPRPPRLPRPRPRPLTFPRP	-0.113
RRIRDRPPRLPRPRPRPVHEPRP	-0.0506
RRIRFRPPRLPRPRPRPVKRPRP	0.0219
RRIRFRPPRLPRPRPRPQETPRP	-0.0613
RRIRMRPPRLPRPRPRPMCFPRP	0.271
RRIRLRPPRLPRPRPRPHKTPRP	0.0373
RRIRARPPRLPRPRPRPKHKPRP	0.172
RRIRRRPPRLPRPRPRPCPDPRP	-0.0762
RRIRFRPPRLPRPRPRPRIPPRP	-0.0955
RRIRRRPPRLPRPRPRPTYHPRP	0.648
RRIRTRPPRLPRPRPRPATHPRP	-0.152
RRIRGRPPRLPRPRPRPFFCPRP	0.471
RRIRARPPRLPRPRPRPPVNPRP	0.36
RRIRARPPRLPRPRPRPHQYPRP	-0.278
